Literature values in patent US12485093B2, “Composition for use as an antiviral in the form of nasal drops and in nebulisers” (DERMOPARTNERS, S.L., priority 2021, dated 2025).
Read-outs that look alike come from different tables or passages of the source.

Legend:
SARS-CoV-2 [1] = conditions: African green monkey kidney epithelial cells, 1 mg/ml
SARS-CoV-2 [2] = conditions: adenocarcinoma human alveolar basal epithelial cells (A549), 1 mg/ml
[3] = test system: viral entry into host cells; conditions: by interacting with viral and/or cell surface receptors

B1: lactoferrin (protein, UniProt P02788 20-710, looked up)
Lactotransferrin: GRRRSVQWCAVSQPEATKCFQWQRNMRKVRGPPVSCIKRDSPIQCIQAIAENRADAVTLDGGFIYEAGLAPYKLRPVAAEVYGTERQPRTHYYAVAVVKKGGSFQLNELQGLKSCHTGLRRTAGWNVPIGTLRPFLNWTGPPEPIEAAVARFFSASCVPGADKGQFPNLCRLCAGTGENKCAFSSQEPYFSYSGAFKCLRDGAGDVAFIRESTVFEDLSDEAERDEYELLCPDNTRKPVDKFKDCHLARVPSHAVVARSVNGKEDAIWNLLRQAQEKFGKDKSPKFQLFGSPSGQKDLLFKDSAIGFSRVPPRIDSGLYLGSGYFTAIQNLRKSEEEVAARRARVVWCAVGEQELRKCNQWSGLSEGSVTCSSASTTEDCIALVLKGEADAMSLDGGYVYTAGKCGLVPVLAENYKSQQSSDPDPNCVDRPVEGYLAVAVVRRSDTSLTWNSVKGKKSCHTAVDRTAGWNIPMGLLFNQTGSCKFDEYFSQSCAPGSDPRSNLCALCIGDEQGENKCVPNSNERYYGYTGAFRCLAENAGDVAFVKDVTVLQNTDGNNNEAWAKDLKLADFALLCLDGKRKPVTEARSCHLAMAPNHAVVSRMDKVERLKQVLLHQQAKFGRNGSDCPDKFCLFQSETKNLLFNDNTECLARLHGKTTYEKYLGPQYVAGITNLKKCSTSPLLEACEFLRK
notes: naturally occurring, non-toxic glycoprotein, multifunctional protein of the immune system
inhibition of SARS-CoV-2 (SARS-CoV-2 [1]): capable of inhibiting SARS-CoV-2 | inhibition of SARS-CoV-2 (SARS-CoV-2 [2]): capable of inhibiting SARS-CoV-2 | block of viral entry into host cells [3]: managed to block viral entry into host cells | effect on efficacy of remdesivir and hydroxychloroquine (SARS-CoV-2 infection): potentiated the efficacy of both remdesivir and hydroxychloroquine | IC50 (SARS-CoV-2 infection; read-out: IC50 of inhibition of SARS-CoV-2 infection): 308 nM
